Test results from US9127076B2, “Modified peptides having toxin-enhancing effects” (The University of Georgia Research Foundation, dated 2015).

Target: Cry1Fa toxin (Bacillus thuringiensis, UniProt Q03746)
Assay: cell-based or functional assay

B1: Sf-CR10-12 (receptor)
chain: MKFLDRLSATDEDGLHAGRVTFSIAGNDEAAEYFNVLNDGDNSAMLTLKQALPAGVQQFELVIRATDGGTEPGPRSTDCSVTVVFVMTQGDPVFDDNAASVRFVEKEAGMSEKFQLPQADDPKNYRCMDDCHTIYYSIVDGNDGDHFAVEPETNVIYLLKPLDRSQQEQYRVVVAASNTPGGTSTLSSSLLTVTIGVREANPRPIFESEFYTAGVLHTDSIHKELVYLAAKHSEGLPIVYSIDQETMKIDESLQTVVEDAFDINSATGVISLNFQPTSVMHGSFDFEVVASDTRGASDRAKVSIYMISTRVRVHHHHHH
For B1, which “larval mortality and larval weight, diet surface bioassay, neonate S. frugiperda, 0.1 µg/cm^2 Cry1Fa” value (shortened to “larval mortality and larval weight”) is on record?
Its value is roughly 2 fold.

B2: Sf-CR10-12(PS) (receptor)
chain: MAFLDCLSATDEDGLHAGCVTFSIAGNDEAAEYFNVLNDGDNSAMLTLSQALPAGVQQFELVISATDGGTEPGPSSTDCSVTVVFVMTQGDPVFDDNAASVSFVEHEAGMSESFQLPQADDPSNYACMDDCHTIYYSIVDGNDGDHFAVEPETNVIYLLSPLDSSQQEQYSVVVAASNTPGGTSTLSSSLLTVTIGVSEANPSPIFESEFYTAGVLHTDSIHSELVYLAASHSEGLPIVYSIDQETMSIDESLQTVVEDAFDINSATGVISLNFQPTSVMHGSFDFEVVASDTCGASDCASVSIYMISTRVRVHHHHHH
Which “larval mortality and larval weight” value does the source give for B2 here?
The value was roughly 4 fold.

B3: Ms-CR10-12(PS) (receptor)
chain: MHLECISATDPDGLHAGVVTFQVVGDEESQAYFQVVNDGANLGSLSLLQAVPEEIAEFSITICATDQGTDPGPLSTDMTFAVVFVPTQGEPAFASSEHAVAFIEASAGMEESHQLPLAQDIANHLCEDDCHSIYYAIIDGNSEGHFGLDPVANALFLSAELIAEQSASHTLQVAASNSPDGGIPLPASILTVTVTVAEADPAPVFMAELYTAGISTADSIGCELLALHATQSEGAAITYAIDYDTMVVDPSLEAVCQSAFVLNAQTGVLTLNIQPTATMHGLFNFEVTATDTAGAQDRTDVTVYVVSSQNRLEHHHHHH
B3 was tested. Which “larval mortality and larval weight” value did it give?
The value was less than 2 fold.
